Experiments:
[1] = molecular target: T1, Human active TGFβ1 (human, UniProt P01137 279-390); test: blocking of active TGFβ1 (1 ng/mL) in solution, 30 min in PBS; free TGFβ1 by ELISA
T1 construct: mature; also called TGFB1
Text: TGFβ causes a wide range of immune suppression in several immune cell types including inhibition of crucial early innate IFN responses.

[2] = molecular target: active TGFβ3 (UniProt P10600); test: blocking of active TGFβ3 (1 ng/mL) in solution, 30 min in PBS; free TGFβ3 by ELISA
Sequence of active TGFβ3 (P10600 301-412): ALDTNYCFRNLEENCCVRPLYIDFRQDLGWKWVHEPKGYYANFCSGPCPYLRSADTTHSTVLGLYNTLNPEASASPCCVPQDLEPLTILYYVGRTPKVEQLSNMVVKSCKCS

T1 sequence (P01137 279-390 limits assumed): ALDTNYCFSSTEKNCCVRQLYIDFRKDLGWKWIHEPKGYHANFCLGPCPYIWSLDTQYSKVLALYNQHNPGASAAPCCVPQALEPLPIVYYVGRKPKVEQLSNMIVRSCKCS

Row | Molecule | IC50 [1] [nM] | IC50 [2] [nM]
1 | FIST (monovalent FIST; IL2-sTBRII) | 1.29 | 3.6
2 | TβRII isoform 2 (receptor, UniProt P37173-2 24-184, looked up, also called TβRll (isoform II); control (TβRII isoform 2)) IPPHVQKSDVEMEAQKDEIICPSCNRTAHPLRHINNDMIVTDNNGAVKFPQLCKFCDVRFSTCDNQKSCMSNCSITSICEKPQEVCVAVWRKNDENITLETVCHDPKLPYHDFILEDAASPKCIMKEKKKPGETFFMCSCSSDECNDNIIFSEEYNTSNPD | 0.02 | –
